The values below come from US20040214255A1 (MYRIAD GENETICS, published 2004).

Experiment in all cases: yeast two-hybrid
Assay [1] concerns the target T1, Dynamin, amino acids 250-700 (human, UniProt Q05193 250-700).
T1 construct: range 250-700
T1 sequence (looked up): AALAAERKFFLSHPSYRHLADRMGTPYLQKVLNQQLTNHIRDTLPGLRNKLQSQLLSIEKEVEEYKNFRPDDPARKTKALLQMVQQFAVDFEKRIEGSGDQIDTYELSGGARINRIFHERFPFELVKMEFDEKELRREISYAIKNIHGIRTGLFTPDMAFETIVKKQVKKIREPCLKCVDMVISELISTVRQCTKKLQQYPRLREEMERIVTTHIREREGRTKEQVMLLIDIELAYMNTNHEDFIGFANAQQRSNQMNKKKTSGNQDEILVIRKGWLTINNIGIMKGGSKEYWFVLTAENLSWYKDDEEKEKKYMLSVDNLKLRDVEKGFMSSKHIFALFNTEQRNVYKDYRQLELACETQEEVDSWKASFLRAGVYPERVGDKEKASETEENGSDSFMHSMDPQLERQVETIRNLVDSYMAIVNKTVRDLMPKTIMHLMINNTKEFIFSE
From the text: (§1) The new construct was selected directly in the yeast strain PNY200 for its ability to drive tryptophane synthesis (genotype of this strain: […] trp1-901 leu2-3,112 ura3-52 his3-200 ade2 gal4Δ gal80). In these yeast cells, the bait was produced as a C-terminal fusion protein with the DNA binding domain of the transcription factor Ga14 (amino acids 1 to 147). Prey libraries were transformed into the yeast strain BK100 (genotype of this strain: MATα trp1-901 leu2-3,112 ura3-52 his3-200 gal4Δ gal80 LYS2::GAL-HIS3 GAL2-ADE2 met2::GAL7-lacZ), and selected for the ability to drive leucine synthesis. In these yeast cells, each cDNA was expressed as a fusion protein with the transcription activation domain of the transcription factor Ga14 (amino acids 768 to 881) and a 9 amino acid hemagglutinin epitope tag. PNY200 cells (MATα mating type), expressing the bait, were then mated with BK100 cells (MATa mating type), expressing prey proteins from a prey library. The resulting diploid yeast cells expressing proteins interacting with the bait protein were selected for the ability to synthesize tryptophan, leucine, histidine, and adenine. DNA was prepared from each clone, transformed by electroporation into E. coli strain KC8 (Clontech KC8 electrocompetent cells, Catalog No. C2023-1), and the cells were selected on ampicillin-containing plates in the absence of either tryptophane (selection for the bait plasmid) or leucine (selection for the library plasmid). DNA for both plasmids was prepared and sequenced by the dideoxynucleotide chain termination method. The identity of the bait cDNA insert was confirmed and the cDNA insert from the prey library plasmid was identified using the BLAST program to search against public nucleotide and protein databases. Plasmids from the prey library were then individually transformed into yeast cells together with a plasmid driving the synthesis of lamin and 5 other test proteins, respectively, fused to the Ga14 DNA binding domain. Clones that gave a positive signal in the β-galactosidase assay were considered false-positives and discarded. […] Clones that gave a positive signal in the β-galactosidase assay were considered true positives.

Assay [2] addresses T2, NuMA1, amino acids 185-361 (human, UniProt Q14980 185-361).
T2 construct: range 185-361; also called nuclear mitotic apparatus protein NuMA1
T2 sequence (looked up): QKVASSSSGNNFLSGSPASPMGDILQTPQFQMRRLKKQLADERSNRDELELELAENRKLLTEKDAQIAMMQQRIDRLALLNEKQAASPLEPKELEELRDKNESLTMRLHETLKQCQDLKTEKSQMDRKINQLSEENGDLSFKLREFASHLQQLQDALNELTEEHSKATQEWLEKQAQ
Excerpt: as §1

Assay [3] addresses T3, Tropomyosin 3, amino acids 171-286 (human, UniProt P06753 171-285).
T3 construct: range 171-286
Excerpt: as §1

Assay [4] has as its target T4, BAP31, amino acids 111-247 (human, UniProt P51572 111-246).
T4 construct: range 111-247
T4 sequence (looked up): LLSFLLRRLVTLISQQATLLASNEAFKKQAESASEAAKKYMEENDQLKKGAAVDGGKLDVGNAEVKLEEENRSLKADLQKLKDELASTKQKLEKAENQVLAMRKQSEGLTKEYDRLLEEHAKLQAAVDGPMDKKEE
Excerpt: as §1

The target of assay [5] is T5, Myosin Heavy Chain (Swiss Protein P13533), amino acids 1589-1909 (human, UniProt P13533 1589-1909).
T5 construct: range 1589-1909; also called cardiac muscle myosin heavy chain; MYSA
Excerpt: as §1

Assay [6] deals with T6, 14-3-3-Eta, amino acids 91-246 (human, UniProt Q04917 91-246).
T6 construct: range 91-246
T6 sequence (looked up): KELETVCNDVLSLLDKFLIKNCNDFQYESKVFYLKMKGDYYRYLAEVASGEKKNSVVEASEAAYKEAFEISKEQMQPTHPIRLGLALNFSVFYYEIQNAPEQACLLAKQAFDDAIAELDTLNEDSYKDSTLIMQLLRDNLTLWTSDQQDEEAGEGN
Excerpt: as §1

The target in assay [7] is T7, 14-3-3-Zeta, amino acids 79-246 (human, UniProt P63104 79-245).
T7 sequence: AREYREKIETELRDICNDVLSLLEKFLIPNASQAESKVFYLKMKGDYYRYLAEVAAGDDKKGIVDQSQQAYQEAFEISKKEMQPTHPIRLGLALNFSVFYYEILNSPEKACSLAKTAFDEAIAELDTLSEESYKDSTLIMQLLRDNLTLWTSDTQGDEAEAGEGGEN
Excerpt: as §1

For assay [8], the target named is T8, Insulin-Regulated Membrane-Spanning Aminopeptidase (IRAP), amino acids 129-473 (human, UniProt Q9UIQ6 129-473).
T8 construct: range 129-473; also called vp165; gp160
Excerpt: as §1

Assay [9] concerns the target T9, NuMA1, amino acids 98-365 (human, UniProt Q14980 98-365).
T9 construct: range 98-365; also called nuclear mitotic apparatus protein NuMA1
T9 sequence (looked up): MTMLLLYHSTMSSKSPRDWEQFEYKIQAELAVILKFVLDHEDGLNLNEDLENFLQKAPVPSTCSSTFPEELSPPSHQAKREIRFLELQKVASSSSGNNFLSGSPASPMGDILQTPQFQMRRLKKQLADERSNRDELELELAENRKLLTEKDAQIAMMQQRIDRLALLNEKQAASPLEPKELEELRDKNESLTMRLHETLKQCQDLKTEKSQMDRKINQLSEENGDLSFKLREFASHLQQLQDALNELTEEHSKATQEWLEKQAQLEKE
Excerpt: as §1

In assay [10] the target is T10, Dynamin, amino acids 104-365 (human, UniProt Q05193 104-365).
T10 construct: range 104-365
T10 sequence (looked up): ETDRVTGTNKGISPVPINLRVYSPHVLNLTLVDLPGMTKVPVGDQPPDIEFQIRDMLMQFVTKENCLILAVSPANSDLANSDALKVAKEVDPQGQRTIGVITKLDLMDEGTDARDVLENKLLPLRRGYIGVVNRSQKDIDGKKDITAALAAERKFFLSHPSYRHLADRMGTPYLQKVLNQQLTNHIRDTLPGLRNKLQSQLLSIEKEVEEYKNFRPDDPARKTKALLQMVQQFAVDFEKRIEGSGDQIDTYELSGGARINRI
Excerpt: as §1

For assay [11], the target named is T11, Alpha Acid Glucosidase (GAA), amino acids 513-953 (human, UniProt P10253 513-952).
T11 construct: range 513-953
Excerpt: as §1

T5 sequence (P13533 1589-1909, one chain of several): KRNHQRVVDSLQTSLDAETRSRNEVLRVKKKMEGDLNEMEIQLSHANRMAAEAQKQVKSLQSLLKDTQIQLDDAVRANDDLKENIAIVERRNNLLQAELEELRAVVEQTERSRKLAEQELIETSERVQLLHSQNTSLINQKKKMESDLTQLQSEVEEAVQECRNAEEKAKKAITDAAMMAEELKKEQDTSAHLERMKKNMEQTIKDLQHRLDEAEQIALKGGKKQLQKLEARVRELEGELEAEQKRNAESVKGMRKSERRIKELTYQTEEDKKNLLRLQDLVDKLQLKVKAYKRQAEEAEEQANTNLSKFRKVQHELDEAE
T3 sequence (P06753 171-285 limits assumed): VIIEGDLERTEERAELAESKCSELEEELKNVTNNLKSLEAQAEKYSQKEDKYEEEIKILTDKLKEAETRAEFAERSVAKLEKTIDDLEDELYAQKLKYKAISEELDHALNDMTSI
T8 sequence (Q9UIQ6 129-473 limits assumed): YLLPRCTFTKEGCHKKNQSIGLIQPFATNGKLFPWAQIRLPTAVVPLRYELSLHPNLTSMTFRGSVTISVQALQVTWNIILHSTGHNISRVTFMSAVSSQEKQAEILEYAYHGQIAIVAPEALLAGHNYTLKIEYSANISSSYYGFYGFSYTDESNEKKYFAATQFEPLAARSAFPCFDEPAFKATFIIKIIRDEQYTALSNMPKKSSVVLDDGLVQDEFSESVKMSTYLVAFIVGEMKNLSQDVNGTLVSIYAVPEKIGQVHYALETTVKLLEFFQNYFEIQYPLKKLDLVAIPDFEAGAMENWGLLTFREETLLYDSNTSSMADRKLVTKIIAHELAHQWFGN
T11 sequence (P10253 513-952 limits assumed): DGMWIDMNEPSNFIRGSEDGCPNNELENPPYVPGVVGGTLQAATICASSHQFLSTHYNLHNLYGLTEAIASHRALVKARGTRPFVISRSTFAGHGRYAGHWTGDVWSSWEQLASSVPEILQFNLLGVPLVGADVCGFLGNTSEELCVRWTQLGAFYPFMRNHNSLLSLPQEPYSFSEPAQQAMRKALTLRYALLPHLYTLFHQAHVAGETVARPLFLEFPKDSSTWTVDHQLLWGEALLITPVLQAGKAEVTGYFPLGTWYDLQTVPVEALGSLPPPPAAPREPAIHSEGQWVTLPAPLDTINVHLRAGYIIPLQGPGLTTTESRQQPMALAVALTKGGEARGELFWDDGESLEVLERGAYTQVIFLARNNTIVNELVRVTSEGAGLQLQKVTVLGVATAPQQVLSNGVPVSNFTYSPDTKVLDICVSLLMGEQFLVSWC

B1: Proteosome Activator Subunit Psme3, amino acids 72-254 (other, human, UniProt P61289 72-254, looked up)
chain: LTNSHDGLDGPTYKKRRLDECEEAFQGTKVFVMPNGMLKSNQQLVDIIEKVKPEIRLLIEKCNTVKMWVQLLIPRIEDGNNFGVSIQEETVAELRTVESEAASYLDQISRYYITRAKLVSKIAKYPHVEDYRRTVTEIDEKEYISLRLIISELRNQYVTLHDMILKNIEKIKRPRSSNAETLY
notes: range 72-254
B1: the binding result in assay [1] was “binds”.

B2: Akt kinase 1 (Akt1), amino acids 1-118 (enzyme, human, UniProt P31749 1-118, looked up)
chain: MSDVAIVKEGWLHKRGEYIKTWRPRYFLLKNDGTFIGYKERPQDVDQREAPLNNFSVAQCQLMKTERPRPNTFIIRCLQWTTVIERTFHVETPEEREEWTTAIQTVADGLKKQEEEEM
notes: range 1-118
As to B2, the binding result in assay [2] is on record as “binds”.

B3: Clathrin Assembly Protein (CALM), amino acids 267-484 (other, human, UniProt Q13492 267-484, looked up)
chain: LSQAPSSLLDALEQHLASLEGKKIKDSTAASRATTLSNAVSSLASTGLSLTKVDEREKQAALEEEQARLKALKEQRLKELAKKPHTSLTTAASPVSTSAGGIMTAPAIDIFSTPSSSNSTSKLPNDLLDLQQPTFHPSVHPMSTASQVASTWGDPFSATVDAVDDAIPSLNPFLTKSSGDVHLSISSDVSTFTTRTPTHEMFVGFTPSPVAQPHPSAG
notes: range 267-484
Take B3: the binding result in assay [1] was “binds”.

B4: Glut4, amino acids 434-510 (other, human, UniProt P14672 434-509, looked up)
chain: IGMGFQYVAEAMGPYVFLLFAVLLLGFFIFTFLRVPETRGRTFDQISAAFHRTPSLLEQEVKPSTELEYLGPDEND
notes: range 434-510; also called Glucose Transporter 4
For the molecule B4, in [3], the binding result is “binds”.

B5: Akt kinase 2 (Akt2), amino acids 276-408 (enzyme, human, UniProt P31751 276-408, looked up)
chain: IKLENLMLDKDGHIKITDFGLCKEGISDGATMKTFCGTPEYLAPEVLEDNDYGRAVDWWGLGVVMYEMMCGRLPFYNQDHERLFELILMEEIRFPRTLSPEAKSLLAGLLKKDPKQRLGGGPSDAKEVMEHRF
notes: range 276-408
Consider B5, for which the binding result in assay [4] is listed as “binds”. With TYFKVPETKGRTFDEIASGFRQGGASQSDKTPEELFHPLGADSQV (other, human, UniProt P11166 448-492, looked up, range 448-493; also called GLUT1; Glut1) [Glucose Transporter 1, amino acids 448-493], the binding result in assay [5] is on record as “binds”.

B6: PI-3K85, amino acids 1-50 (other, human, UniProt P27986 1-50, looked up)
chain: MSAEGYQYRALYDYKKEREEDIDLHLGDILTVNKGSLVALGFSDGQEARP
notes: range 1-50; also called p85 regulatory subunit of PI-3 kinase; PI-3 kinase p85
Consider B6, for which the binding result in assay [6] and in assay [7] was “binds” throughout.

B7: 14-3-3 Beta, amino acids 97-236 (other, human, UniProt P31946 97-236, looked up)
chain: NDVLELLDKYLIPNATQPESKVFYLKMKGDYFRYLSEVASGDNKQTTVSNSQQAYQEAFEISKKEMQPTHPIRLGLALNFSVFYYEILNSPEKACSLAKTAFDEAIAELDTLNEESYKDSTLIMQLLRDNLTLWTSENQG
notes: range 97-236
Take B7: the binding result in assay [8] is on record as “binds”.

B8: Akt kinase 2 (Akt2), amino acids 1-152 (enzyme, human, UniProt P31751 1-152, looked up)
chain: MNEVSVIKEGWLHKRGEYIKTWRPRYFLLKSDGSFIGYKERPEAPDQTLPPLNNFSVAECQLMKTERPRPNTFVIRCLQWTTVIERTFHVDSPDEREEWMRAIQMVANSLKQRAPGEDPMDYKCGSPSDSSTTEEMEVAVSKARAKVTMNDF
notes: range 1-152
Consider B8, for which, in assay [9], the binding result was “binds”.

B9: GLUT1, amino acids 463-492 (other, human, UniProt P11166 463-492, looked up)
chain: IASGFRQGGASQSDKTPEELFHPLGADSQV
notes: range 463-492; also called Glucose Transporter 1
Consider B9, for which the binding result in assay [10] is reported as “binds”.

B10: PI-3 kinase p110 subunit, amino acids 1-300 (enzyme)
chain: MCFSFIMPPAMADILDIWAVDSQIASDGSIPVDFLLPTGIYIQLEVPREATISYIKQMLWKQVHNYPMFNLLMDIDSYMFACVNQTAVYEELEDETRRLCDVRPFLPVLKLVTRSCDPGEKLDSKIGVLIGKGLHEFDSLKDPEVNEFRRKMRKFSEEKILSLVGLSWMDWLKQTYPPEHEPSIPENLEDKLYGGKLIVAVHFENCQDVFSFQVSPNMNPIKVNELAIQKRLTIHGKEDEVSPYDYVLQVSGRVEYVFGDHPLIQFQYIRNCVMNRALPHFILVECCKIKKMYEQEMIAI
notes: range 1-300; also called PI-3K110; p110 catalytic subunit of PI-3 kinase
In the case of B10, the binding result in assay [11] was “binds”.
